Measurements as given in the DeepSol protein solubility set.

Assay: soluble on expression in E. coli; label from the status in PepcDB or PDB records
With “MKLFQVLIISMICLALVEERRDRSNRRRNQSEGGSRSRSESWLGSSGSSRSRSSGRSAASAGSSQAASPAGASAIGSSQAGSSAGSPAAAAAGGSGGADAGAILNGVGGLMRSVGGLAGAAGGAAGGAAGAPAGAPAGASAGASAAPAAQDAGTVLGGVSGVLTGVSGIVSAAGAAKA” the “soluble on expression in E. coli” value was “not soluble”. For “MKLHLEIWRQAGPNSEGHFEPIDVNDAVPQMSVLELLDHVNTGLIEEGKEPFVFASDCREGICGTCGLLVNGRPHGLDKNKPSCQQRLDHVPDGSTLKIEPLRSAAYPVVKDLLVDRSALDRVLEKGGFVSINAGTAPDADTLHQNHESAELALDH”, the “soluble on expression in E. coli” value was “not soluble”. In the case of “MKLIFILSIIFLSSLSVAQSPISCAFCMAGLAQINQQVISSPDMEAQMGIQASQGCDQIPVKQTRETCRGSLNTNFNIFYSNFTGQANNSPTQMCINMGMC”, the “soluble on expression in E. coli” value is reported as “not soluble”. With “MKLKAILIVALSVVLFLVGYREMKPISDEQKMESMIKALEKNDAKVEKWSWLARETKTISNIHTFQKLLNDVKEKANIQKWEVEQSPDGYKATSYKKLSSYEERVVVTWSKENTKENTFIIFEVSGAKWDPKYVQNMNKIFSEKPIIYTCVQGVLNDKIEGVLQNKTNQVLKDLSARAIEQVEERAFVSVSAYNKKWDDALSTNREKINVQIAIRSTDNKDTIVVGTPIITSEY” the “soluble on expression in E. coli” value was “not soluble”. For “MKLKHLDKLLAHCHRRRYTAKSTIIYAGDRCETLFFIIKGSVTILIEDDDGREMIIGYLNSGDFFGELGLFEKEGSEQERSAWVRAKVECEVAEISYAKFRELSQQDSEILYTLGSQMADRLRKTTRKVGDLAFLDVTGRVARTLLDLCQQPDAMTHPDGMQIKITRQEIGRIVGCSREMVGRVLKSLEEQGLVHVKGKTMVVFGTR”, the “soluble on expression in E. coli” value was “soluble”. In the case of “MKLNCCGVTQIADRVERLAHTHGKTWHTWHTDQDKTLPLGVPQLMMGFTADGQADPAMQQQRNQRLGIVKSAIKAQRADIQIPKADPGADGWQHGKTIQINDPTGHLHGPATSPTPQNTNSRSTQLEHHHHHH”, the “soluble on expression in E. coli” value is reported as “not soluble”. In the case of “MKLNLKNPLIFFDLETTGVDLVRDRIVEISILKVMPDGSEECKTRRINPERPIPPESTAIHGIRDEDVKDCPPFRSVAKSLAQWIEGCDLAGFNSTRFDVPMLVEEFLRAGVDIDLRHRKLIDVQTIFHKMEPRTLEAATRFYCNRTLENAHSAEADTRATYDVFKAQLDRYEGTLENDMAFLADFSRQSRNVDFAGRLVYDDNDNVIINFGKYRGRKALDVLRTDSGYYGWIMDADFTLNTKQEFTRLRMSLNNPETK”, the “soluble on expression in E. coli” value is reported as “soluble”. For “MKLPARVFFTLGSRLPCGLAPRRFFSYGTKILYQNTEALQSKFFSPLQKAMLPPNSFQGKVAFITGGGTGLGKGMTTLLSSLGAQCVIASRKMDVLKATAEQISSQTGNKVHAIQCDVRDPDMVQNTVSELIKVAGHPNIVINNAAGNFISPTERLSPNAWKTITDIVLNGTAFVTLEIGKQLIKAQKGAAFLSITTIYAETGSGFVVPSASAKAGVEAMSKSLAAEWGKYGMRFNVIQPGPIKTKGAFSRLDPTGTFEKEMIGRIPCGRLGTVEELANLAAFLCSDYASWINGAVIKFDGGEEVLISGEFNDLRKVTKEQWDTIEELIRKTKGS”, the “soluble on expression in E. coli” value was “soluble”. For “MKLSGGVEWALHCCVVLSQAESPVPTARLAELHGVSKTYLAKHLQSLARAGLVHPTEGRDGGYVLTRAPEAITVLDVVQAVDGTEPAFRCTEIRRQGVLAAPPEQCRSACGIAKVMAGAEQAWRASLSSVTIADLGATIDLTVLKHILATSTT”, the “soluble on expression in E. coli” value was “not soluble”. With “MKLSLVFLLFVAFAKSADTAPVDFNKIFVTFVEELMDAINQLILEQMGAIRPSTTPLQSIPPITATDAPTTADTTAEPTKAHETTVAQEATSEGAETHETTVGQDTTVRSGESQETTVSQGTTVSQENTVSQETTVSQDTTVSQETTVSQDTTVSQDTTVSQESTVSQETTVSQDTTVSQETSVSHETNVSPDTTVSQESTVSQDTTVSQETTLSQETTVSQETTVSQDTTVSQETTASQDTTVSQDTTVSQDTTVVPQETTVEATKASEATEENGTTAVTPGESDPCDTTEAPTGGSTVGESEPCDTTEASEPTGHTDQAETVTDPASQATASATIIGGVDQTGSTNLEATTEQICKHPTKDSEEEKTDENKDEKTTRAGTNVHRPEREDILK” the “soluble on expression in E. coli” value was “not soluble”. In the case of “MKLSPVSAAVLSVLAAGFAHAETEPSHYEEVVVTANRIEQPLSEVAGSVAVLEGETLEKQGKTELYDALNQEPGVSVTGGAGRPQNITIRGMTGNRIAIVRDGIQSADGYGAADINDKYGRNTFSLSNVKQIQVVKGASSTLYGSGAIGGVVIIESKAPEDYLYHRDYYVDAALTYSGISNRYQGNHALAMRHGDGEALLTIDYWQGEETRNFNQDLYNREVDGYNLGFSHHYWLNDALRLKTHLEYFDDYAKRREGTSSIQKDDKWDLVSFYEYQRSQTRLASVGADYTANLSWMDTLEGKFYWRSTENITQTNRLMANDRSGAGILSYRRELRDEGFNDEALGATLNAQKEWQQGEWLHQFAYGMSVDGHDYQRPKSIRRMESSGDDLQADEPFAPAREYRFGVYGQDNLLLGDWTLAAGLRFDAQKLSPKNTDRIHGYKVVTMGSSEWSPSASISYQWHPEWNTYLSYNHGFRAPSYDKAYGASDHSFVPLTPFIIKPNNKLRAETSDSFELGSKYDNGQTQFYVAVFYSIFDNFIDVKQVGYDNATGSVIQQYQNIAGVKTYGAEMSVMHRLDDRWSVENKLGYVDGKDGENQYVRTLTPLEGSVQLNYQRERWDAYSRLNWASAMSRVPTCTTEQGKETECATTTGWVSWDIGLNYQWNAQLSASFNVVNLLDREYTRYQDVAGVTPSDTLYSTEPGRYFTVHAKYVF”, the “soluble on expression in E. coli” value is reported as “not soluble”. In the case of “MKLSQMQAGERGIILALDGLSDTVRKKLMVMGVLPNTEVVLIRRAPMGDPLQVEVRGVSIALRENIAANIDVERAQ”, the “soluble on expression in E. coli” value is reported as “not soluble”. For “MKLSTKLCWCGIKGRLRPQKQQQLHNTNLQMTELKKQKTAEQKTRPQNVGIKGIQIYIPTQCVNQSELEKFDGVSQGKYTIGLGQTNMSFVNDREDIYSMSLTVLSKLIKSYNIDTNKIGRLEVGTETLIDKSKSVKSVLMQLFGENTDVEGIDTLNACYGGTNALFNSLNWIESNAWDGRDAIVVCGDIAIYDKGAARPTGGAGTVAMWIGPDAPIVFDSVRASYMEHAYDFYKPDFTSEYPYVDGHFSLTCYVKALDQVYKSYSKKAISKGLVSDPAGSDALNVLKYFDYNVFHVPTCKLVTKSYGRLLYNDFRANPQLFPEVDAELATRDYDESLTDKNIEKTFVNVAKPFHKERVAQSLIVPTNTGNMYTASVYAAFASLLNYVGSDDLQGKRVGLFSYGSGLAASLYSCKIVGDVQHIIKELDITNKLAKRITETPKDYEAAIELRENAHLKKNFKPQGSIEHLQSGVYYLTNIDDKFRRSYDVKK”, the “soluble on expression in E. coli” value was “soluble”. For “MKLTGSKILIECLKEQGVDTIFGFPGGAVLNIYDELYRSQNEIRHILTSHEQGAAHAADGYARATGKVGVCLATSGPGATNLVTGIATAYMDSVPMVAITGQVATPLLGKDSFQEVDITGITMPITKHNFIVKDVNKLADIVRRAFYIAKEGRPGPVLIDICKDVTAAYAEYEPKSPQELPEVPVRVDEKCIDEAAEAINKAERPVILAGGGVSIAGANKELFEFATNAQIPVTTTLMGMGAFPGTHELFMGMIGMHGTKTTNMAVSESDLFIAIGARFSDRVISNVQRFAPKASIMHIDIDPAEIGKNINVQYALEGNIKKILQLLNERVKKKECTDWVRKINEWKELYPLKYPQDDKLHPQYIIERMYELTKGEAIITTEVGQHQMWAAQFYKYTSPRQFLSSGGLGTMGYGLGACIGARIGRPDKKVINVAGDGSFRMNCNELATAVEYKLPIIVAIFNNHALGMVRQWQQLFYGGRYSSTSLDRCTDFKALAEAYGAIGINVTAKEEVDEALNRALASEDTPVVINFEIDKDEMVFPIVPPGAPLSELIEE”, the “soluble on expression in E. coli” value was “not soluble”. For “MKLYNLKDHNEQVSFAQAVTQGLGKNQGLFFPHDLPEFSLTEIDEMLKLDFVTRSAKILSAFIGDEIPQEILEERVRAAFAFPAPVANVESDVGCLELFHGPTLAFKDFGGRFMAQMLTHIAGDKPVTILTATSGDTGAAVAHAFYGLPNVKVVILYPRGKISPLQEKLFCTLGGNIETVAIDGDFDACQALVKQAFDDEELKVALGLNSANSINISRLLAQICYYFEAVAQLPQETRNQLVVSVPSGNFGDLTAGLLAKSLGLPVKRFIAATNVNDTVPRFLHDGQWSPKATQATLSNAMDVSQPNNWPRVEELFRRKIWQLKELGYAAVDDETTQQTMRELKELGYTSEPHAAVAYRALRDQLNPGEYGLFLGTAHPAKFKESVEAILGETLDLPKELAERADLPLLSHNLPADFAALRKLMMNHQ”, the “soluble on expression in E. coli” value was “soluble”. In the case of “MKLYYKVGAASLAPHIILSEAGLPYELEAVDLKAKKTADGGDYFAVNPRGAVPALEVKPGTVITQNAAILQYIGDHSDVAAFKPAYGSIERARLQEALGFCSDLHAAFSGLFAPNLSEEARAGVIANINRRLGQLEAMLSDKNAYWLGDDFTQPDAYASVIIGWGVGQKLDLSAYPKALKLRERVLARPNVQKAFKEEGLN”, the “soluble on expression in E. coli” value is reported as “soluble”. With “MKMLEQLEKKLGYTFKDKSLLEKALTHVSYSKKEHYETLEFLGDALVNFFIVDLLVQYSPNKREGFLSPLKAYLISEEFFNLLAQKLELHKFIRIKRGKINETIIGDVFEALWAAVYIDSGRDANFTRELFYKLFKEDILSAIKEGRVKKDYKTILQEITQKRWKERPEYRLISVEGPHHKKKFIVEAKIKEYRTLGEGKSKKEAEQRAAEELIKLLEESE” the “soluble on expression in E. coli” value was “soluble”. With “MKMLVGKIPSELLAKILEKLKPGDKVIVGPKVGIDATAIDFGDYVLVASTDPITGTEEKIGFYAVNINANDVATFGARPKWFLVTILLPEGSEFNDVITIMDEVREVAEGMGISIVGGHTEVTPGLKKPIVVGTMLGEVEKENLVVPNPRPGDAIILTKGAGIEGTSIIAHEREEELKGVFGSNFVERAKAFINEISIVREALLSREFATAMHDPTEGGIANGLHEMADINGLGFRIFANKVIIREETRKICHFYDLDPLALISSGALLISTPRDHAKFLIERLLSHGIQASIIGEFLAEKKRVIIENGAERPLKRPESDELWKVV” the “soluble on expression in E. coli” value was “soluble”. For “MKMMDANEIISFIQNSTKSTPVKVYVKGELEGINFGESAKAFINGNTGVVFGEWSEIQTAIEENQSKIEDYVVENDRRNSAIPMLDL”, the “soluble on expression in E. coli” value was “not soluble”. For “MKMNPRCTYCLLSRVHFQSKLSTDDEDLISRTIHECLGVMNKHYSPEAVSSRVATKVHRKCYEVLRDSDPYEVTKKLINQAALKVLPAAKEKIYENSPDDGELFKRAVLASVIANYFDFGIMGFDASEDKFEAAFLKYYEQGLDVDDTPEMLGLLQDVVYIADNCGEILFDAIVFDVIKKLGGNITLVVRGGPILTDVTLEEIKEFEIDKKVDRVMTTGSNAVGVLVEEAPAELLDAMKNATLIISKGMANYETLSEHNFGPIAYMLLTKCECVAEDLGLETGLSVAKLMNFPLEHHHHHH”, the “soluble on expression in E. coli” value was “soluble”. In the case of “MKMQKELSVYLKQILQAAQYIRLYTDKMDYGQFSADTKTVQAVVFNLFLIGENATHILKSYPEFAEETKYLNWIGMRGYCAIGLPMATLK”, the “soluble on expression in E. coli” value is reported as “not soluble”. With “MKMTSRKLSDILKKRLQNDSWSFHFDREKDSLRIEDKNTGKGITLELPGIIAKWEQKKDDAIDEVVYYTEEALNAMKGQSQEMEGRESLIYPVIRSTSFPEKSSAGVPLVFDGHTAETRIYYALDLGNTYRLIDEKMLEKEGWTKERIRETASFNLRSLQTVVKEDEVAGNHFYFFRANDGYDASRVLNESILAEYEKNAEGTLAVSIPHQDVLIIADIRNNAGYDILGQMSMSFFANGTVPITALSFLYEDGKLEPIFILAKNRPKK” the “soluble on expression in E. coli” value was “not soluble”.
